Measured values: FireProtDB (doi:10.1021/bi5005975)
Changes are numbered by the printed parent chain. “And” between values parts separate entries of the source, which are not always exact repeats. Identical values can stand only once.

B1: wild type, Q9NAV7 (protein)
chain: MGFKQDIATLRGDLRTYAQDIFLAFLNKYPDEKRNFKNYVGKSDQELKSMAKFGDHTEKVFNLMMEVADRATDCVPLASDASTLVQMKQHSGLTTGNFEKLFVALVEYMRASGQSFDSQSWDRFGKNLVSALSSAGMK
B2: wild type, Q9NAV8 (protein)
chain: B1 chain with L10I, K33R, N35Y, S82N, G92S

conditions: Amphitrite ornata; pH 7; 20 °C; GdnHCl; UV?visible spectrophotometer; potassium phosphate 100 mM; transition: 2; reversible: yes; whole UniProt chain shown

| Protein | denaturant midpoint (higher = more stable) | unfolding free energy |
| --- | --- | --- |
| B1 | 1.09 M | 9.25 kJ/mol |

same assay, conditions: Amphitrite ornata; pH 7; 20 °C; Urea; UV?visible spectrophotometer; potassium phosphate 100 mM; transition: 2; reversible: yes; whole UniProt chain shown

| Protein | denaturant midpoint (higher = more stable) | unfolding free energy |
| --- | --- | --- |
| B1 | 4.12 M | 10.1 kJ/mol |

same assay, conditions: Amphitrite ornata; pH 7; Thermal; DSC; degassed buffer (potassium phosphate) 100 mM; transition: 2; reversible: yes; whole UniProt chain shown

| Protein | Tm | unfolding enthalpy (calorimetric) | unfolding enthalpy (van 't Hoff) |
| --- | --- | --- | --- |
| B1 | 47.7 °C and 48.6 °C | 691 kJ/mol and 695 kJ/mol | 1400 kJ/mol and 1660 kJ/mol |
| B2 | 50.5 °C and 49.8 °C | 767 kJ/mol and 682 kJ/mol | 1610 kJ/mol and 1720 kJ/mol |

same assay, conditions: Amphitrite ornata; pH 7; Thermal; UV?visible spectrophotometer; potassium phosphate 100 mM; transition: 2; reversible: yes; whole UniProt chain shown

| Protein | Tm |
| --- | --- |
| B1 | 46 °C |
